These results are taken from paper PMC6019379, “RecA-like domain 2 of DNA-dependent ATPase A domain, a SWI2/SNF2 protein, mediates conformational integrity and ATP hydrolysis” (Bioscience Reports, 2018).

Numbering of substitutions follows the chain as printed.

Broadly, the Kd is a measure of binding affinity in units of concentration.

What all share (assay): intrinsic tryptophan fluorescence titration; no ATP; Fluorescence titration (ex 295 nm, em 340 nm), one-site saturation fit; buffer, salt, pH and temperature not given in the material. Wild-type ADAAD Kd values are cited from ref 24 and not listed
Holding throughout (conditions): protein: recombinant; tags: His (Ni-NTA, pET-14b); hairpin

One data set deals with T1, ADAAD D591H (Bos taurus (bovine), UniProt Q9TTA5 221-940, D811H).
T1 sequence: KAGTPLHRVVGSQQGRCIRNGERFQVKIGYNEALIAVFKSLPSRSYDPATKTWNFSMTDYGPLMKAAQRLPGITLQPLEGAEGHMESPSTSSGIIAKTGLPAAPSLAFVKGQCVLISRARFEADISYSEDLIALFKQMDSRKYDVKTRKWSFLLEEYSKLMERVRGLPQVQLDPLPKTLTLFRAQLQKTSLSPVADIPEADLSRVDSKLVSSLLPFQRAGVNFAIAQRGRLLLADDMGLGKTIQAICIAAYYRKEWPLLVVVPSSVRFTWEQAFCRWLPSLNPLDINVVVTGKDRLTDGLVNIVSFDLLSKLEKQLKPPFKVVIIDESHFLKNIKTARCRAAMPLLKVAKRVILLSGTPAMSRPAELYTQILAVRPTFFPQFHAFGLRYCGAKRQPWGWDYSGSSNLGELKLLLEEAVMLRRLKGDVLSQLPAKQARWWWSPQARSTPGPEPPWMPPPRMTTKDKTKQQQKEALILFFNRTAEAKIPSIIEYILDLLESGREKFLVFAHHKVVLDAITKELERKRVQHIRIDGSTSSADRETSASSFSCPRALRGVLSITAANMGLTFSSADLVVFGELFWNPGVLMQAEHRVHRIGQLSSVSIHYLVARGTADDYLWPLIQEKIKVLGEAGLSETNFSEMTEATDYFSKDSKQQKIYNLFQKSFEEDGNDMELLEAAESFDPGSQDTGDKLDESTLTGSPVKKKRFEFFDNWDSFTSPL

The target of another data set is T2, ADAAD H329D/D591H (Bos taurus (bovine), UniProt Q9TTA5 221-940, H549D;D811H).
T2 sequence: T1 sequence with H329D

The next data set concerns the target T3, ADAAD H594A (Bos taurus (bovine), UniProt Q9TTA5 221-940, H814A).
T3 sequence: T1 sequence with H591D, H594A

For the molecule GCGCAATTGCGCTCGACGATTTTTTAGCGCAATTGCGC (structured_DNA) [slDNA (stem-loop DNA)], the Kd with ADAAD D591H was determined as 21.3 ± 7 nM; with ADAAD H329D/D591H, 16.1 ± 5.7 nM; in the data set with ADAAD H594A, 10.9 ± 2.6 nM.
